Measured values as given in the RNAGym collection of RNA variant scans (doi:10.1021/acssynbio.7b00057).

B1: Pistol ribozyme (parent)
chain: GGGUCGUUGUUCCAUAAUCGCGUGGAUAUGGCACGCAAGUUUCUACCGGGCACCGUAAAUGUCCGACUGGAGCCGUUCGGGCGGCUAUAAACAGACCUCAGGCCCGAAGCGUGGCGGCACCUGCCGCCGGUGGUAAAAAAGAUCGGAAGAGCACACGUCU

Variants of: B1
Test: aptazyme ON/OFF ratio, guanine; higher = stronger switching; co-transcriptional cleavage with and without guanine

Variant	aptazyme ON/OFF ratio
U7C U8A G9U U10C U11G C12A C13G	1.09
U7C U8A U10G C12G C13G	1.15
U7C U8A U10G C12G C13A	1.13
U7C U8A U10G C12G C13U	1.41
U7C U8A G9U U11A C12G	1.14
U7C U8A G9U U11A C12A	1.19
U7C U8A G9U U11A C12U	1.06
U7C U8A G9U U10G U11C C12U C13A	1.16
U7C U8A G9U U10G U11C C12U C13U	1.22
U7C U8A G9U U10G U11C C12U C13G	1.14
U7C U8A U10C U11A C12U C13A	1.16
U7C U8A U10C U11A C12U C13U	1.16
U7C U8A U10C U11A C12U C13G	1.17
U7C U8A G9U U10G U11C C12G C13G	1.23
U7C U8A G9U U10G U11C C12G C13A	1.22
U7C U8A G9U U10G U11C C12G C13U	1.24
U7C U8A G9U U10G U11G C12U C13G	1.15
U7C U8A G9U U10G U11G C12U C13A	1.11
U7C U8A G9U U10G U11G C12U C13U	1.3
U7C U8A G9U U11G	1.21
U7C U8A G9U U11C	1.07
U7C U8A G9U U11A	1.08
U7C U8A U10C U11C C12G	1.25
U7C U8A U10C U11C C12U	1.09

Variant	aptazyme ON/OFF ratio
U7C U8A U10C U11C C12A	1.17
U7C U8A G9U U10G U11A C12A C13U	1.21
U7C U8A G9U U10G U11A C12A C13G	1.09
U7C U8A G9U U10G U11A C12A C13A	1.35
U7C U8A G9U U10G U11C C12U	1.07
U7C U8A G9U U10G U11C C12G	1.26
U7C U8A G9U U10G U11C C12A	1.21
U7C U8A G9U U11C C12G C13U	1.16
U7C U8A G9U U11C C12G C13G	1.12
U7C U8A G9U U11C C12G C13A	1.17
U7C U8A G9U U10G U11G C12G	1.26
U7C U8A G9U U10G U11G C12A	1.16
U7C U8A G9U U10G U11G C12U	1.25
U7C U8A U10C U11A C12G	1.2
U7C U8A U10C U11A C12U	1.19
U7C U8A U10C U11A C12A	1.27
U7C U8A U10G U11A C13G	1.17
U7C U8A U10G U11A C13U	1.07
U7C U8A U10G U11A C13A	1.11
U7C U8A U10C U11A C13A	1.12
U7C U8A U10C U11A C13U	1.16
U7C U8A U10C U11A C13G	1.15
U7C U8A U10C U11C C12A C13A	1.18
U7C U8A U10C U11C C12A C13U	1.27

Variant	aptazyme ON/OFF ratio
U7C U8A U10C U11C C12A C13G	1.27
U7C U8A U10C U11C C12G C13U	1.09
U7C U8A U10C U11C C12G C13G	1.12
U7C U8A U10C U11C C12G C13A	1.2
U7C U8A G9U U10C C12G C13G	1.28
U7C U8A G9U U10C C12G C13U	1.22
U7C U8A G9U U10C C12G C13A	1.18
U7C U8A G9U U10C U11C C12A C13A	1.06
U7C U8A G9U U10C U11C C12A C13U	1.12
U7C U8A G9U U10C U11C C12A C13G	1.29
U7C U8A U10A U11C C12G C13U	1.13
U7C U8A U10A U11C C12G C13A	1.15
U7C U8A U10A U11C C12G C13G	1.22
U7C U8A U10A U11C C12U	1.01
U7C U8A U10A U11C C12G	1.13
U7C U8A U10A U11C C12A	1.09
U7C U8A U10A U11G C12A	1.06
U7C U8A U10A U11G C12G	1.19
U7C U8A U10A U11G C12U	1.24
U7C U8A U10G U11A C12G C13A	1.12
U7C U8A U10G U11A C12G C13G	1.18
U7C U8A U10G U11A C12G C13U	1.29
U7C U8A G9U U10C U11C C12A	1.06
U7C U8A G9U U10C U11C C12G	1.03

Variant	aptazyme ON/OFF ratio
U7C U8A G9U U10C U11C C12U	1.08
U7C U8A G9U U10G	1.26
U7C U8A U10C C12U C13G	1.17
U7C U8A U10C C12U C13U	1.54
U7C U8A U10C C12U C13A	1.17
U7C U8A U10A C12U C13U	1.3
U7C U8A U10A C12U C13G	1.18
U7C U8A U10A C12U C13A	1.22
U7C U8A G9U U10G C13U	1.31
U7C U8A G9U U10G C13G	1.08
U7C U8A G9U U10G C13A	1.41
U7C U8A U10A U11A C12G C13U	1.23
U7C U8A U10A U11A C12G C13G	1.31
U7C U8A U10A U11A C12G C13A	1.23
U7C U8A U10G	1.37
U7C U8A U10A	1.1
U7C U8A U10C	1.76
U7C U8A U10C U11G C12G C13G	1.08
U7C U8A U10C U11G C12G C13A	1.15
U7C U8A U10C U11G C12G C13U	1.08
U7C U8A G9U U10G C12A C13G	1.13
U7C U8A G9U U10G C12A C13U	1.17
U7C U8A G9U U10G C12A C13A	1.19
U7C U8A U10C U11G C13G	1.1

Variant	aptazyme ON/OFF ratio
U7C U8A U10C U11G C13A	1.17
U7C U8A U10C U11G C13U	1.16
U7C U8A U10C U11A C12A C13U	1.14
U7C U8A U10C U11A C12A C13G	1.17
U7C U8A U10C U11A C12A C13A	1.2
U7C U8A U10A U11G	1.22
U7C U8A U10A U11A	1.14
U7C U8A U10A U11C	1.05
U7C U8A G9U U10G U11G C12G C13A	1.21
U7C U8A G9U U10G U11G C12G C13U	1.14
U7C U8A G9U U10G U11G C12G C13G	1.14
U7C U8A G9U U11G C13A	1.17
U7C U8A G9U U11G C13U	1.17
U7C U8A G9U U11G C13G	1.02
U7C U8A G9U U11C C12A C13A	1.1
U7C U8A G9U U11C C12A C13G	1.07
U7C U8A G9U U11C C12A C13U	1.2
U7C U8A G9U U11C C12U C13G	1
U7C U8A G9U U11C C12U C13U	1.21
U7C U8A G9U U11C C12U C13A	1.05
U7C U8A G9U U10C C12U C13U	1.13
U7C U8A G9U U10C C12U C13G	1.12
U7C U8A G9U U10C C12U C13A	1.12
U7C U8A G9U U10C U11C C12G C13U	1.07

Variant	aptazyme ON/OFF ratio
U7C U8A G9U U10C U11C C12G C13G	1.11
U7C U8A G9U U10C U11C C12G C13A	1.09
U7C U8A G9U U11A C12A C13A	1.08
U7C U8A G9U U11A C12A C13U	1.41
U7C U8A G9U U11A C12A C13G	1.18
U7C U8A U10C C12G C13U	1.31
U7C U8A U10C C12G C13A	1.19
U7C U8A U10C C12G C13G	1.16
U7C U8A G9U U10C U11G C12U C13U	1.15
U7C U8A G9U U10C U11G C12U C13A	1.12
U7C U8A G9U U10C U11G C12U C13G	1.13
U7C U8A U10C U11C C13A	1.04
U7C U8A U10C U11C C13G	1.09
U7C U8A U10C U11C C13U	1.01
U7C U8A U10C C12A C13A	1.17
U7C U8A U10C C12A C13G	1.07
U7C U8A U10C C12A C13U	1.24
U7C U8A G9U U10G C12A	1.12
U7C U8A G9U U10G C12U	1.41
U7C U8A G9U U10G C12G	1.08
U7C U8A U10A C12A C13A	1.17
U7C U8A U10A C12A C13U	1.15
U7C U8A U10A C12A C13G	1.21
U7C U8A G9U U10C U11A C12A C13U	1.15

Variant	aptazyme ON/OFF ratio
U7C U8A G9U U10C U11A C12A C13G	1.13
U7C U8A G9U U10C U11A C12A C13A	1.08
U7C U8A G9U U10C U11C	1.01
U7C U8A G9U U10C U11A	1.27
U7C U8A G9U U10C U11G	1.06
U7C U8A G9U U10G U11A C13G	1.07
U7C U8A G9U U10G U11A C13A	1.06
U7C U8A G9U U10G U11A C13U	1.03
U7C U8A U10C U11G C12U C13A	1.28
U7C U8A U10C U11G C12U C13G	1.16
U7C U8A U10C U11G C12U C13U	1.35
U7C U8A G9U U11G C12A	1.09
U7C U8A G9U U11G C12G	1.15
U7C U8A G9U U11G C12U	1.4
U7C U8A G9U U11A C12G C13G	1.15
U7C U8A G9U U11A C12G C13A	1.17
U7C U8A G9U U11A C12G C13U	1.15
U7C U8A G9U U10C U11A C12U C13G	1.09
U7C U8A G9U U10C U11A C12U C13A	1.11
U7C U8A G9U U10C U11A C12U C13U	1.15
U7C U8A G9U U10G U11A C12G C13U	1.2
U7C U8A G9U U10G U11A C12G C13A	1.21
U7C U8A G9U U10G U11A C12G C13G	1.22
